T1: human glucose-dependent insulinotropic peptide receptor (human, UniProt P48546 22-466)
T1 sequence (looked up): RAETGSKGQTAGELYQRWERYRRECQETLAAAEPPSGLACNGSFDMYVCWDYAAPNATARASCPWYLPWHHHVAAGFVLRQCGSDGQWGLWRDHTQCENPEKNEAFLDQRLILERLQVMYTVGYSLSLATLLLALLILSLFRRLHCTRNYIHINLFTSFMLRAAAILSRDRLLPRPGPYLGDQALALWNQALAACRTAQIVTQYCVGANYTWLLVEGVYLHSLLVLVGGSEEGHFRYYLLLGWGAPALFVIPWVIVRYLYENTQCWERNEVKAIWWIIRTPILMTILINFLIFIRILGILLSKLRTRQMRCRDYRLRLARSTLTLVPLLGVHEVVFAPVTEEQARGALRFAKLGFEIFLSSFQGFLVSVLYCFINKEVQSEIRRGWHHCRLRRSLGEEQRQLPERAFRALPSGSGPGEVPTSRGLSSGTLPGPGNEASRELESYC

B1: Example 90 (peptide)
peptide: Y[Aib]EGTFISDYSI[αMeL]LDKK([AEEA-AEEA-γGlu-C20 diacid])HQ[Aib]DFVE[αMeY]LLEAGPSSGAPPPS-NH2
modifications: N-terminus assumed
SMILES: CC[C@H](C)[C@H](NC(=O)[C@H](Cc1ccccc1)NC(=O)[C@@H](NC(=O)CNC(=O)[C@H](CCC(=O)O)NC(=O)C(C)(C)NC(=O)[C@@H](N)Cc1ccc(O)cc1)[C@@H](C)O)C(=O)N[C@@H](CO)C(=O)N[C@@H](CC(=O)O)C(=O)N[C@@H](Cc1ccc(O)cc1)C(=O)N[C@@H](CO)C(=O)N[C@H](C(=O)N[C@@](C)(CC(C)C)C(=O)N[C@@H](CC(C)C)C(=O)N[C@@H](CC(=O)O)C(=O)N[C@@H](CCCCN)C(=O)N[C@@H](CCCCNC(=O)COCCOCCNC(=O)COCCOCCNC(=O)CC[C@H](NC(=O)CCCCCCCCCCCCCCCCCCC(=O)O)C(=O)O)C(=O)N[C@@H](Cc1c[nH]cn1)C(=O)N[C@@H](CCC(N)=O)C(=O)NC(C)(C)C(=O)N[C@@H](CC(=O)O)C(=O)N[C@@H](Cc1ccccc1)C(=O)N[C@H](C(=O)N[C@@H](CCC(=O)O)C(=O)N[C@@](C)(Cc1ccc(O)cc1)C(=O)N[C@@H](CC(C)C)C(=O)N[C@@H](CC(C)C)C(=O)N[C@@H](CCC(=O)O)C(=O)N[C@@H](C)C(=O)NCC(=O)N1CCC[C@H]1C(=O)N[C@@H](CO)C(=O)N[C@@H](CO)C(=O)NCC(=O)N[C@@H](C)C(=O)N1CCC[C@H]1C(=O)N1CCC[C@H]1C(=O)N1CCC[C@H]1C(=O)N[C@@H](CO)C(N)=O)C(C)C)[C@@H](C)CC
B2: Example 88 (peptide)
peptide: YXEGTXISDYSIXLDKKHQXDFVEXLLEAGPSSGAPPPS
modifications: Aib2; Iva6; αMeL13; K17((2-[2-(2-Amino-ethoxy)-ethoxy]-acetyl)2-(γ-Glu)-CO-(CH2)18-CO2H); Aib20; 4-Pal25; C-terminal amide
B3: Example 89 (peptide)
peptide: Y[Aib]EGTLISDYSI[αMeL]LDKK([AEEA-AEEA-γGlu-C20 diacid])HQ[Aib]DFVE[4Pal]LLEAGPSSGAPPPS-NH2
modifications: N-terminus assumed
SMILES: CC[C@H](C)[C@H](NC(=O)[C@H](CC(C)C)NC(=O)[C@@H](NC(=O)CNC(=O)[C@H](CCC(=O)O)NC(=O)C(C)(C)NC(=O)[C@@H](N)Cc1ccc(O)cc1)[C@@H](C)O)C(=O)N[C@@H](CO)C(=O)N[C@@H](CC(=O)O)C(=O)N[C@@H](Cc1ccc(O)cc1)C(=O)N[C@@H](CO)C(=O)N[C@H](C(=O)N[C@@](C)(CC(C)C)C(=O)N[C@@H](CC(C)C)C(=O)N[C@@H](CC(=O)O)C(=O)N[C@@H](CCCCN)C(=O)N[C@@H](CCCCNC(=O)COCCOCCNC(=O)COCCOCCNC(=O)CC[C@H](NC(=O)CCCCCCCCCCCCCCCCCCC(=O)O)C(=O)O)C(=O)N[C@@H](Cc1c[nH]cn1)C(=O)N[C@@H](CCC(N)=O)C(=O)NC(C)(C)C(=O)N[C@@H](CC(=O)O)C(=O)N[C@@H](Cc1ccccc1)C(=O)N[C@H](C(=O)N[C@@H](CCC(=O)O)C(=O)N[C@@H](Cc1ccncc1)C(=O)N[C@@H](CC(C)C)C(=O)N[C@@H](CC(C)C)C(=O)N[C@@H](CCC(=O)O)C(=O)N[C@@H](C)C(=O)NCC(=O)N1CCC[C@H]1C(=O)N[C@@H](CO)C(=O)N[C@@H](CO)C(=O)NCC(=O)N[C@@H](C)C(=O)N1CCC[C@H]1C(=O)N1CCC[C@H]1C(=O)N1CCC[C@H]1C(=O)N[C@@H](CO)C(N)=O)C(C)C)[C@@H](C)CC
B4: Example 92 (peptide)
peptide: Y[Aib]EGTFISDYSI[αMeL]LDKIHQ[Aib]DFVEYK([AEEA-AEEA-γGlu-C20 diacid])LEQGPSSGAPPPS-NH2
modifications: N-terminus assumed
SMILES: CC[C@H](C)[C@H](NC(=O)[C@H](CCCCN)NC(=O)[C@H](CC(=O)O)NC(=O)[C@H](CC(C)C)NC(=O)[C@](C)(CC(C)C)NC(=O)[C@@H](NC(=O)[C@H](CO)NC(=O)[C@H](Cc1ccc(O)cc1)NC(=O)[C@H](CC(=O)O)NC(=O)[C@H](CO)NC(=O)[C@@H](NC(=O)[C@H](Cc1ccccc1)NC(=O)[C@@H](NC(=O)CNC(=O)[C@H](CCC(=O)O)NC(=O)C(C)(C)NC(=O)[C@@H](N)Cc1ccc(O)cc1)[C@@H](C)O)[C@@H](C)CC)[C@@H](C)CC)C(=O)N[C@@H](Cc1c[nH]cn1)C(=O)N[C@@H](CCC(N)=O)C(=O)NC(C)(C)C(=O)N[C@@H](CC(=O)O)C(=O)N[C@@H](Cc1ccccc1)C(=O)N[C@H](C(=O)N[C@@H](CCC(=O)O)C(=O)N[C@@H](Cc1ccc(O)cc1)C(=O)N[C@@H](CCCCNC(=O)COCCOCCNC(=O)COCCOCCNC(=O)CC[C@H](NC(=O)CCCCCCCCCCCCCCCCCCC(=O)O)C(=O)O)C(=O)N[C@@H](CC(C)C)C(=O)N[C@@H](CCC(=O)O)C(=O)N[C@@H](CCC(N)=O)C(=O)NCC(=O)N1CCC[C@H]1C(=O)N[C@@H](CO)C(=O)N[C@@H](CO)C(=O)NCC(=O)N[C@@H](C)C(=O)N1CCC[C@H]1C(=O)N1CCC[C@H]1C(=O)N1CCC[C@H]1C(=O)N[C@@H](CO)C(N)=O)C(C)C
B5: Example 86 (peptide)
peptide: Y[Aib]EGTFISDYSI[αMeL]LDEK([AEEA-AEEA-γGlu-C20 diacid])HQ[Aib]DFVE[4Pal]LLAGGPSSGAPPPS-NH2
modifications: N-terminus assumed
SMILES: CC[C@H](C)[C@H](NC(=O)[C@H](Cc1ccccc1)NC(=O)[C@@H](NC(=O)CNC(=O)[C@H](CCC(=O)O)NC(=O)C(C)(C)NC(=O)[C@@H](N)Cc1ccc(O)cc1)[C@@H](C)O)C(=O)N[C@@H](CO)C(=O)N[C@@H](CC(=O)O)C(=O)N[C@@H](Cc1ccc(O)cc1)C(=O)N[C@@H](CO)C(=O)N[C@H](C(=O)N[C@@](C)(CC(C)C)C(=O)N[C@@H](CC(C)C)C(=O)N[C@@H](CC(=O)O)C(=O)N[C@@H](CCC(=O)O)C(=O)N[C@@H](CCCCNC(=O)COCCOCCNC(=O)COCCOCCNC(=O)CC[C@H](NC(=O)CCCCCCCCCCCCCCCCCCC(=O)O)C(=O)O)C(=O)N[C@@H](Cc1c[nH]cn1)C(=O)N[C@@H](CCC(N)=O)C(=O)NC(C)(C)C(=O)N[C@@H](CC(=O)O)C(=O)N[C@@H](Cc1ccccc1)C(=O)N[C@H](C(=O)N[C@@H](CCC(=O)O)C(=O)N[C@@H](Cc1ccncc1)C(=O)N[C@@H](CC(C)C)C(=O)N[C@@H](CC(C)C)C(=O)N[C@@H](C)C(=O)NCC(=O)NCC(=O)N1CCC[C@H]1C(=O)N[C@@H](CO)C(=O)N[C@@H](CO)C(=O)NCC(=O)N[C@@H](C)C(=O)N1CCC[C@H]1C(=O)N1CCC[C@H]1C(=O)N1CCC[C@H]1C(=O)N[C@@H](CO)C(N)=O)C(C)C)[C@@H](C)CC
B6: Example 91 (peptide)
peptide: Y[Aib]EGTFISDYSI[αMeL]LDKK([AEEA-AEEA-γGlu-C20 diacid])HQ[Aib]DFVE[αMeY]LLEGGPSSGAPPPS-NH2
modifications: N-terminus assumed
SMILES: CC[C@H](C)[C@H](NC(=O)[C@H](Cc1ccccc1)NC(=O)[C@@H](NC(=O)CNC(=O)[C@H](CCC(=O)O)NC(=O)C(C)(C)NC(=O)[C@@H](N)Cc1ccc(O)cc1)[C@@H](C)O)C(=O)N[C@@H](CO)C(=O)N[C@@H](CC(=O)O)C(=O)N[C@@H](Cc1ccc(O)cc1)C(=O)N[C@@H](CO)C(=O)N[C@H](C(=O)N[C@@](C)(CC(C)C)C(=O)N[C@@H](CC(C)C)C(=O)N[C@@H](CC(=O)O)C(=O)N[C@@H](CCCCN)C(=O)N[C@@H](CCCCNC(=O)COCCOCCNC(=O)COCCOCCNC(=O)CC[C@H](NC(=O)CCCCCCCCCCCCCCCCCCC(=O)O)C(=O)O)C(=O)N[C@@H](Cc1c[nH]cn1)C(=O)N[C@@H](CCC(N)=O)C(=O)NC(C)(C)C(=O)N[C@@H](CC(=O)O)C(=O)N[C@@H](Cc1ccccc1)C(=O)N[C@H](C(=O)N[C@@H](CCC(=O)O)C(=O)N[C@@](C)(Cc1ccc(O)cc1)C(=O)N[C@@H](CC(C)C)C(=O)N[C@@H](CC(C)C)C(=O)N[C@@H](CCC(=O)O)C(=O)NCC(=O)NCC(=O)N1CCC[C@H]1C(=O)N[C@@H](CO)C(=O)N[C@@H](CO)C(=O)NCC(=O)N[C@@H](C)C(=O)N1CCC[C@H]1C(=O)N1CCC[C@H]1C(=O)N1CCC[C@H]1C(=O)N[C@@H](CO)C(N)=O)C(C)C)[C@@H](C)CC

Starred links: 1 amine or outer side, 2 acyl side, 3 side chain; linkers in the order of their positions; H or OH if unused. Non-standard residues stand in square brackets, D forms with d. Groups on a side chain read outwards from the residue. No end group written: not given here. *: point of attachment. C20 diacid = O=C(O)CCCCCCCCCCCCCCCCCCC(=O)*; γGlu = O=C(O)[C@H](CCC(=O)[*:2])N[*:1]; αMeY = C[C@](N)(Cc1ccc(O)cc1)C(=O)O; 4Pal = N[C@@H](Cc1ccncc1)C(=O)O; αMeL = CC(C)C[C@](C)(N)C(=O)O; AEEA = NCCOCCOCC(=O)O; Aib = CC(C)(N)C(=O)O

Sequence of human glucagon receptor (P47871 26-477): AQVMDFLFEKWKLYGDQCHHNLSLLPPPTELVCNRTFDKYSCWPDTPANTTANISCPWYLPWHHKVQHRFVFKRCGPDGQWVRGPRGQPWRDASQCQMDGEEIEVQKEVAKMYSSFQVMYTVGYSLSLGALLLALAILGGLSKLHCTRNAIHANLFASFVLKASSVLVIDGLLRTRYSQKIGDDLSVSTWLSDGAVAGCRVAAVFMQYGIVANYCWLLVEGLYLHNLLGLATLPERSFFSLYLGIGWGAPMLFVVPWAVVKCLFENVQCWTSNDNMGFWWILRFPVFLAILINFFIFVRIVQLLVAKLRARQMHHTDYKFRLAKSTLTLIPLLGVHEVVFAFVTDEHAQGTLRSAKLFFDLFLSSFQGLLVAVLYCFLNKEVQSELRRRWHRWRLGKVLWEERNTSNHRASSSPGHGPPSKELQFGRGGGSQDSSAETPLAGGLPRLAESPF

One assay addresses human GLP-1 receptor (human, UniProt P43220 24-463). The assay is described as follows: cell-based or functional assay.
Take B1: the “hGLP1R cAMP Rel EC50” value was above 5 µM.

On to B2, for which the “hGLP1R cAMP Rel EC50” value is above 5 µM.

In the case of B3, the “hGLP1R cAMP Rel EC50” value is above 5 µM.

Consider B4, for which the “hGLP1R cAMP Rel EC50” value is above 5 µM.

Consider B5, for which the “hGLP1R cAMP Rel EC50” value was above 5 µM.

Consider B6, for which the “hGLP1R cAMP Rel EC50” value came to 0.53 µM.

The next assay concerns the target T1, human glucose-dependent insulinotropic …. The assay is described as follows: cell-based or functional assay.
As for B1, the “hGIPR cAMP Rel EC50” value is 0.0272 nM.

For the molecule B2, the “hGIPR cAMP Rel EC50” value is 0.0031 nM.

As to B3, the “hGIPR cAMP Rel EC50” value is 0.00687 nM.

Take B4: the “hGIPR cAMP Rel EC50” value is 0.0191 nM.

For the molecule B5, the “hGIPR cAMP Rel EC50” value was 0.03 nM.

Turning to B6, the “hGIPR cAMP Rel EC50” value came out at 0.0321 nM.

The next assay addresses human glucagon receptor (human, UniProt P47871 26-477). As to the kind of experiment: cell-based or functional assay.
Regarding B1, the “hGcgR cAMP Rel EC50” value was above 5 µM.

On to B2, for which the “hGcgR cAMP Rel EC50” value amounted to 1.67 µM.

Turning to B3, the “hGcgR cAMP Rel EC50” value is above 5 µM.

In the case of B4, the “hGcgR cAMP Rel EC50” value is above 5 µM.

B5: the “hGcgR cAMP Rel EC50” value is above 5 µM.

In the case of B6, the “hGcgR cAMP Rel EC50” value is 0.289 µM.

For the origin of these results see US20210032299A1 (Eli Lilly, published 2021).
